Test results: US20260116982A1

Biological target: CD1a antigen on CD1a+ T-ALL cells (Jurkat, MOLT4, primary cortical T-ALL blasts) and cortical thymocytes (human) (UniProt P06126)
Experiment: cell-based or functional assay

specific cell lysis of CD1a+ T-ALL cell lines (Jurkat, MOLT4), 16 h assay, E:T 2:1 or 4:1: 50 to 80%
Substance: CD1a CAR (second-generation chimeric antigen receptor with the anti-CD1a scFv derived from clone NA1/34.HLK, CD8 TM spacer, 4-1BB (CD137) and CD3ζ signaling domains), expressed on T cells
